Experimental data from PMC6202324, “C1GALT1 predicts poor prognosis and is a potential therapeutic target in head and neck cancer” (Oncogene, 2018).

Key:
[1] = biological target: C1GALT1 (Core 1 β1,3-galactosyltransferase) (Homo sapiens, UniProt Q9NS00); assay: cellular thermal shift assay (CETSA, western blot) in SAS and OEC-M1 cells; destabilization, dose-dependent; format: cell-based
[2] = biological target: EGFR (endogenous, from control HNSCC cells) (human (endogenous in SAS and OEC-M1)) (UniProt P00533); assay: ELISA; ligand-binding assay: 100 µg lysate of OEC-M1 cells (siCtr or siC1GALT1-2, 72 h) incubated 18 h on plates coated with anti-EGFR antibody; biotin-EGF at different concentrations, 37 °C, 3 h; streptavidin-HRP, O.D. 490 nm; Kd estimated from Scatchard plot
[3] = biological target: EGFR from C1GALT1 knockdown HNSCC cells (human (endogenous in SAS and OEC-M1)) (UniProt P00533); assay: as above
[4] = biological target: EGFR (endogenous, from control HNSCC cells) (human (endogenous in SAS and OEC-M1)) (UniProt P00533); assay: ELISA; ligand-binding assay: 100 µg lysate of SAS cells (siCtr or siC1GALT1-2, 72 h) incubated 18 h on plates coated with anti-EGFR antibody; biotin-EGF at different concentrations, 37 °C, 3 h; streptavidin-HRP, O.D. 490 nm; Kd estimated from Scatchard plot
[5] = biological target: EGFR from C1GALT1 knockdown HNSCC cells (human (endogenous in SAS and OEC-M1)) (UniProt P00533); assay: as above

C1GALT1 (Core 1 β1,3-galactosyltransferase), sequence (Q9NS00 whole entry): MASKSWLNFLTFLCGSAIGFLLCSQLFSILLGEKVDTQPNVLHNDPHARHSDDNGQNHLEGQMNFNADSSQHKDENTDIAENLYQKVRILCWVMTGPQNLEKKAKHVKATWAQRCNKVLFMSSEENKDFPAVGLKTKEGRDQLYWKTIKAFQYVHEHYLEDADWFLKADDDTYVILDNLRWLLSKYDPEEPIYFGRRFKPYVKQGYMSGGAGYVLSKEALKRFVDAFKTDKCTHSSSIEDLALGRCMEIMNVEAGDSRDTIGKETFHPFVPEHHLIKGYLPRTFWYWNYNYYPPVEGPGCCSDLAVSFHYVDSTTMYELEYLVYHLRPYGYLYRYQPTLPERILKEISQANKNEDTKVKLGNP

Kd [2]	Kd [3]	Kd [4]	Kd [5]	Molecule	cellular thermal shift assay (CETSA, western blot) in SAS and OEC-M1 cells; dest [1]
				CCC(C)n1ncn(-c2ccc(N3CCN(c4ccc(OCC5COC(Cn6cncn6)(c6ccc(Cl)cc6Cl)O5)cc4)CC3)cc2)c1=O (centres unmarked) [ITZ, itraconazole]	melting temperature of C1GALT1 was decreased when SAS and OEC-M1 cells were treated with itraconazole
26.1 nM	58.8 nM	32 nM	42.3 nM	Biotin-EGF (ligand)	
